Article PMC4908976 (Science signaling, 2016)

B1: endogenous Yck2 (untagged native protein) (enzyme, UniProt P23292 1-546, looked up)
chain: MSQVQSPLTATNSGLAVNNNTMNSQMPNRSNVRLVNGTLPPSLHVSSNLNHNTGNSSASYSGSQSRDDSTIVGLHYKIGKKIGEGSFGVLFEGTNMINGLPVAIKFEPRKTEAPQLKDEYRTYKILAGTPGIPQEYYFGQEGLHNILVIDLLGPSLEDLFDWCGRRFSVKTVVQVAVQMITLIEDLHAHDLIYRDIKPDNFLIGRPGQPDANKVHLIDFGMAKQYRDPKTKQHIPYREKKSLSGTARYMSINTHLGREQSRRDDMEAMGHVFFYFLRGQLPWQGLKAPNNKQKYEKIGEKKRLTNVYDLAQGLPIQFGRYLEIVRNLSFEETPDYEGYRMLLLSVLDDLGETADGQYDWMKLNGGRGWDLSINKKPNLHGYGHPNPPNEKSKRHRSKNHQYSSPDHHHHYNQQQQQQQAQAQAQAQAQAKVQQQQLQQAQAQQQANRYQLQPDDSHYDEEREASKLDPTSYEAYQQQTQQKYAQQQQKQMQQKSKQFANTGANGQTNKYPYNAQPTANDEQNAKNAAQDRNSNKSSKGFFSKLGCC
B2: myc-tagged Yck1 (yeast casein kinase 1) (enzyme, S. cerevisiae, UniProt P23291 1-538, looked up)
chain: MSMPIASTTLAVNNLTNINGNANFNVQANKQLHHQAVDSPARSSMTATTAANSNSNSSRDDSTIVGLHYKIGKKIGEGSFGVLFEGTNMINGVPVAIKFEPRKTEAPQLRDEYKTYKILNGTPNIPYAYYFGQEGLHNILVIDLLGPSLEDLFDWCGRKFSVKTVVQVAVQMITLIEDLHAHDLIYRDIKPDNFLIGRPGQPDANNIHLIDFGMAKQYRDPKTKQHIPYREKKSLSGTARYMSINTHLGREQSRRDDMEALGHVFFYFLRGHLPWQGLKAPNNKQKYEKIGEKKRSTNVYDLAQGLPVQFGRYLEIVRSLSFEECPDYEGYRKLLLSVLDDLGETADGQYDWMKLNDGRGWDLNINKKPNLHGYGHPNPPNEKSRKHRNKQLQMQQLQMQQLQQQQQQQQYAQKTEADMRNSQYKPKLDPTSYEAYQHQTQQKYLQEQQKRQQQQKLQEQQLQEQQLQQQQQQQQQLRATGQPPSQPQAQTQSQQFGARYQPQQQPSAALRTPEQHPNDDNSSLAASHKGFFQKLGCC

Target: T1, Gβγ on affinity beads (Gβ with 3xHA-tagged Gγ) (S. cerevisiae, UniProt P18851 1-423; P18852 1-110)
T1 sequence (looked up) 1: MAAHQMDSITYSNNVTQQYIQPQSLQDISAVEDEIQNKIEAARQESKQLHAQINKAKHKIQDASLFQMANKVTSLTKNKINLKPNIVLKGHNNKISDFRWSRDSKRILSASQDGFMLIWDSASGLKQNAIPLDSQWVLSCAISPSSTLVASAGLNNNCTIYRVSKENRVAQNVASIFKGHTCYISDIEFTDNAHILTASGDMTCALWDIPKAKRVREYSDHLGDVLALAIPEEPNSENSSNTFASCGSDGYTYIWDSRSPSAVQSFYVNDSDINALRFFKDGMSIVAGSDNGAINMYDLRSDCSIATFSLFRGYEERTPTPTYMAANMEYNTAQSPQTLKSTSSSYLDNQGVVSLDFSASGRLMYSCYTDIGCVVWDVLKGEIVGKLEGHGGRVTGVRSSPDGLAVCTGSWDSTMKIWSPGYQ
T1 sequence (looked up) 2: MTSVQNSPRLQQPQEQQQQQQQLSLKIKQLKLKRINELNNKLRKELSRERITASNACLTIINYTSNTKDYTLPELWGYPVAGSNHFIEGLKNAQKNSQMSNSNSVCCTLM
Test: affinity purification with mass spectrometry

Binder	Gβ/Gβ^P− ratio (total MS intensity on Gβγ beads over that on Gβ^P−γ beads)
B1	2.09
B2	2.25
